Measurements as given in patent US9492501B2, “Antiviral agent” (priority 2009, dated 2016).

Legend:
[1] = tested on: HIV-1 (proviral genome NL4.3, strain LAI); test: HIV-1 replication, ELISA of viral p24 capsid protein in supernatant of infected Jurkat 1G5 cells; format: cell-based; settings: treatment 24 hours
Description: (§1) Method: a Jurkat CD4+ T lymphocyte cell line (line 1G5) having integrated into its genome a construction comprising a luciferase reporter gene the expression of which is controlled by the HIV-1 promoter (HIV-1 LTR; HIV-LTR Jurkat line) was used. The measurement of luciferase activity from the cell extracts therefore makes it possible to estimate the HIV-1 transcriptional activity.
(§2) The Jurkat HIV-LTR and Jurkat 1G5 lines were transfected by means of the DEAE-dextran technique with the proviral genome NL4.3 (complete HIV-1 genome, strain LAI).
(§3) The HIV-LTR Jurkat and 1G5 Jurkat lines thus infected, are treated 24 hours later with HPBP/PON protein complexes or with purified PON or HPBP proteins at a final concentration of 2 μg/mL of medium (52 nM of protein alone).
(§4) The cells and the cell supernatant are sampled after treatment for 24 hours.
The transcriptional activity is measured by carrying out a luciferase test. The intensity of the HIV-1 replication is measured by means of ELISA assay of the quantity of viral p24 capsid proteins present in the supernatant of the cell cultures of the infected 1G5 lines [Rohr, O., et al. (2000). The Journal of Biological Chemistry 275, 2654-2660]. […]
(§5) The transcriptional activity and inhibition of the replication are measured as described in Example 6.

[2] = tested on: HIV-1 promoter (HIV-1 LTR); test: HIV-1 transcriptional activity, luciferase test in HIV-LTR Jurkat line; format: cell-based; settings: treatment 24 hours
Description: as §1, §2, §3, §4
The transcriptional activity is measured by carrying out a luciferase test. The intensity of the HIV-1 replication is measured by means of ELISA assay of the quantity of viral p24 capsid proteins present in the supernatant of the cell cultures of the infected 1G5 lines [Rohr, O., et al. (2000). The Journal of Biological Chemistry 275, 2654-2660].
An untreated negative control as well as a positive control treated with AZT at a final concentration of 10 μM were carried out in parallel. Each experiment is carried out in triplicate.
In parallel, the infected lymphocyte lines obtained were treated with 10 μg of potato DING protein.
as §1, with “Measurement” for “The measurement”, “activity. […]” for “activity.”
as §5

[3] = biological target: C/EBPβ protein (Homo sapiens, UniProt P17676); test: ELISA of in vitro interaction of HPBP and C/EBPβ proteins; format: binding; settings: C/EBPβ adsorbed on plate, pure HPBP 0.1 nM to 100 mM
Procedure: (§6) The combination of the Human Phosphate Binding Protein (HPBP) with the C/EBPβ protein is carried out using an ELISA technique.
In ELISA flat-bottom 96-well plates having a high binding affinity for proteins, the C/EBPβ protein is adsorbed on the support and incubated overnight at 4° C.
(§7) The proteins not bound to the plate are removed by washing with a Phosphate Buffered Saline (PBS) buffer containing 10 mg/mL of Bovine Serum Albumin (BSA).
The wells are saturated with a Phosphate Buffered Saline (PBS) buffer solution containing 20 mg/mL of Bovine Serum Albumin (BSA) for 1 hour at room temperature in order to remove the background noise.
After washing with a Phosphate Buffered Saline (PBS) solution containing 10 mg/mL of Bovine Serum Albumin (BSA), different solutions of pure HPBP from 0.1 nM to 100 mM are added to the wells for incubation for 1-3 hours at RT.
The plate is once again washed then incubated with mouse monoclonal anti-HPBP antibodies or rabbit polyclonal anti-HPBP antibodies for incubation for 1-3 hours at RT. […]
(§8) Then after a last washing, the plate is incubated with an HRP substrate (3,3′,5,5′-tetramethylbenzidine: TNB in the presence of hydrogen peroxide H2O2). […] The optical density of the product of the reaction is then measured with a spectrophotometer at 450 nm.

[4] = biological target: T1, GST-Tat protein (Human immunodeficiency virus type 1 group M subtype B, UniProt P04608); test: ELISA of in vitro interaction of HPBP and Tat proteins; format: binding, HIV-1; settings: GST-Tat adsorbed on plate, pure HPBP 0.1 nM to 100 mM
T1 construct: made in house
Procedure: as §6
In flat-bottom 96-well ELISA plates having a high protein-binding affinity the GST-Tat protein is adsorbed on the support and incubated overnight at 4° C.
as §7
The wells are saturated with a Phosphate Buffered Saline (PBS) buffer solution containing 20 mg/mL of Bovine Serum Albumin (BSA) for 1 hour at room temperature in order to eliminate the background noise. […]
as §8
The inventors used the Enzyme Linked Immunosorbent Assay (ELISA) technique, suited to studying the interaction between the HPBP protein and the HIV-1 (TAT) protein (Engvall and Perlmann, 1971)). The HIV-1 TAT protein was expressed in the form of a fusion with GST in order to obtain the soluble protein and in quantity (approximately 2 mg/mL). […]

[5] = tested on: Peripheral Blood Lymphocyte (PBL) cells; test: Cell toxicity by MTT method, peripheral blood lymphocytes; format: cell-based; settings: FIG. 11
Procedure: (§9) After culture for 24 hours, the toxicity of the protein is evaluated by measuring the number of living cells by the MTT method (3-(4,5-dimethylthiazol-2-yl)-2,5-diphenyl tetrazolium bromide) as described in Berridge et al. Biotechnology Annual Review, 2005, 11, 127-152.
Similar experiments were carried out on primary lymphocytes. Conditions similar to those used for the 1g5 cells were used.
(§10) The PBL cells were treated with 0.24 μg/mL, 0.48 μg/mL, 0.96 μg/mL, 2.4 μg/mL, 4.8 μg/mL, 9.6 μg/mL, or 24 μg/mL of HPBP protein. Untreated cells were tested as a control.

[6] = tested on: Cell Line R3HR-1G5 (1g5); test: Cell toxicity by MTT method, cell line R3HR-1G5 (1g5); format: cell-based; settings: 1g5 cells, culture 24 hours, FIG. 10
Procedure: The cell toxicity of the HPBP protein was measured on cells in culture.
5.10^6 cells/mL of the lymphoid line B 1g5 were seeded on plates and treated, or not treated, with different doses of purified HPBP protein: 0.2 μg/mL, 2 μg/mL, 20 μg/mL, or 90 μg/mL.
The cells are cultured for 24 hours at 37° C.
as §9
Briefly, 10 μL of MTT is added to each culture.
The mixture is added quickly over 1 minute, then the cultures are returned to 37° C. for 4 hours.
The culture supernatant is then aspirated, and the crystals formed by the presence of MTT are dissolved with acetic acid.
The optical density (OD) of each of the cultures is measured at 570 nm using a spectrophotometer.

[7] = tested on: Microglial cell line; test: Cell toxicity by MTT method, microglial cell line; format: cell-based; settings: for LD50: microglial line, MTT
Procedure: as §9
Similar experiments were carried out on microglial lines. Conditions similar to those used for the 1g5 cells were used, with 5.10^5 cells/mL.
as §10
The cell toxicity of St. John's wort protein p27^SJ was measured on cells in culture under the conditions described in Example 15. The p27^SJ was tested at doses of 0 μg/mL (control), 0.01 μg/mL, 0.1 μg/mL, 0.5 μg/mL, 1 μg/mL, 5 μg/mL, 10 μg/mL, 20 μg/mL and 40 μg/mL.

T1 sequence (P04608 whole entry): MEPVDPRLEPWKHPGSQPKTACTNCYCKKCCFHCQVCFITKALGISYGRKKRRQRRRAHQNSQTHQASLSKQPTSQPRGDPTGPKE
Sequence of C/EBPβ protein (P17676 whole entry, species assumed): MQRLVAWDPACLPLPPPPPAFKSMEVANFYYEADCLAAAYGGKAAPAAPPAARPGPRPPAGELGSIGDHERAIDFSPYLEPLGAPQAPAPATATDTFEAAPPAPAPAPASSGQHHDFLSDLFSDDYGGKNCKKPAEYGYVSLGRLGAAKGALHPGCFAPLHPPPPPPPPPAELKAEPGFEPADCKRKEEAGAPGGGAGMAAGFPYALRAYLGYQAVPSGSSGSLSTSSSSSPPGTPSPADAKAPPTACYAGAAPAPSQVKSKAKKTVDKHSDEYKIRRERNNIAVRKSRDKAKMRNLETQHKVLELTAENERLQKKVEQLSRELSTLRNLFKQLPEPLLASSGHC

Row | Molecule | inhibition of HIV-1 replication ([1]; 2 μg/mL (52 nM), p24 in supernatant, CD4+ T lymphocytes (Jurkat 1G5)) [%] | transcriptional activity repressed ([2]; 2 μg/mL (52 nM), luciferase, FIG. 3) [%] | inhibits the viral replication by a factor (FIG. 5) ([2]; HPBP 2 μg/mL, FIG. 5 (luciferase activity)) | interaction of HPBP protein and C/EBPβ protein in vitro [3] | interaction of HPBP protein and Tat protein in vitro [4] | LD50 [5] | lethal dose 50% (LD50, dose killing half of the cells) [6] | LD50 ([7]; FIG. 12) | cell toxicity (in words) ([7]; conditions of Example 15, FIG. 12) | cells dead ([7]; dose of 40 μg/mL, FIG. 12) | repressive effect on HIV-1 replication (in words) ([1]; 2 μg/mL, p24, FIG. 4) | inhibiting effect on transcriptional activity (in words) ([2]; 2 μg/mL, luciferase, FIG. 3)
1 | HPBP: human phosphate binding protein, plasma DING protein of 38 kDa, SEQ ID NO: 2, purified from human plasma (protein, listed as Homo sapiens) DINGGGATLPQKLYLTPDVLTAGFAPYIGVGSGKGKIAFLENKYNQFGTDTTKNVHWAGSDSKLTATELATYAADKEPGWGKLIQVPSVATSVAIPFRKAGANAVDLSVKELCGVFSGRIADWSGITGAGRSGPIQVVYRAESSGTTELFTRFLNAKCTTQPGTFAVTTVFANSYSLGLSPLAGAVAAIGSVGVMAADNDVTTAQGRITYISPDFAAPTLAGLDDATKVARTGKGSSSGGGAEGKSPAAANVSAAISVVPLPAAADRGDPNVWTPVFGAVTGGGVVAYPDSGYPILGFTDLIFSECYANATQTGQVRNFFTKHYGTSANDNAAIQANAFVPLPSNWKAAVRASYLTASNALSIGDSAVCGGKGRPE | 89 | 80 | > 6 | capable of interacting in vitro | capable of interacting in vitro | approximately 5 μg/mL | approximately 20 μg/mL | approximately 2.5 μg/mL | – | – | – | –
2 | p27^SJ: St. John's wort protein, SEQ ID NO: 4, 71% sequence homology with SEQ ID NO: 1, excluded from the invention (protein, listed as Hypericum perforatum) MADINGGGATLPQALYQTSGVLTAGFAPYIGVGSGNGKAAFLNNDYTKFQAGVTNKNVHWAGSDSKLSATELSTYASAKQPTWGKLIQVPSVGTAVAIPFNKSGTAAVDLSVSELCGVFSGRITDWSGISGSGRTGAITVVYRSESSGTTELFTRFLNAKCAETGTFNISTTFGTSYTGGLPAGAVSAAGSQGVMTALAGADGGTTYMSPDFAAPTLAGLDDATKVARVGKDVATNTAGVSPAAANVSAAINAVPVPASTEKP | – | – | – | – | – | – | – | greater than 2.5 μg/mL | toxicity very clearly less than that of the HPBP protein | approximately 4% | – | –
3 | PON-1: human paraoxonase (PON1), co-purified with HPBP from plasma and separated on hydroxyapatite (protein) AKLIALTLLGMGLALFRNHQSSYQTRLNALREVQPVELPNCNLVKGIETGSEDLEILPNGLAFISSGLKYPGIKSFNPNSPGKILLMDLNEEDPTVLELGITGSKFDVSSFNPHGISTFTDEDNAMYLLVVNHPDAKSTVELFKFQEEEKSLLHLKTIRHKLLPNLNDIVAVGPEHFYGTNDHYFLDPYLQSWEMYLGLAWSYVVYYSPSEVRVVAEGFDFANGINISPDGKYVYIAELLAHKIHVYEKHANWTLTPLKSLDFNTLVDNISVDPETGDLWVGCHPNGMKIFFYDSENPPASEVLRIQNILTEEPKVTQVYAENGTVLQGSTVASVYKGKLLIGTVFHKALYCEL | – | – | – | – | – | – | – | – | – | – | no repressive effect | does not have such an inhibiting effect
